Measured values from patent publication US20230036481A1.

Key:
[1] = target: CD19 on Raji-Luc cells (CD19+ B cell lymphoma cell line) (human) (UniProt P15391); assay: cell-based or functional assay
[2] = target: tagged human CD19 recombinant protein (human) (UniProt P15391); assay: flow cytometry; transduced oNK cells stained with tagged CD19 recombinant protein and fluorescent anti-Myc antibody, after sorting
[3] = target: tagged human CD19 recombinant protein (human) (UniProt P15391); assay: flow cytometry; transduced oNK cells stained with tagged CD19 recombinant protein and fluorescent anti-Myc antibody, before enrichment

double positive of fluorescent signal of expressed Myc tag and bound human CD19 recombinant protein (% of cells) [2]: 82.3%
double positive of fluorescent signal of expressed Myc tag and bound human CD19 recombinant protein (% of cells) [3]: 9.06%
Substance: anti-CD19 chimeric antigen receptor (CAR) expressed on oNK cells (CAR19-oNK)
percentage of cytotoxicity (luciferase luminescence), E:T 0.2:1, 1 hour [1]: 13.9%
percentage of cytotoxicity (luciferase luminescence), E:T 0.5:1, 1 hour [1]: 45.9%
percentage of cytotoxicity (luciferase luminescence), E:T 1:1, 1 hour [1]: 64.1%
percentage of cytotoxicity (luciferase luminescence), E:T 2:1, 1 hour [1]: 80%
percentage of cytotoxicity (luciferase luminescence), E:T 5:1, 1 hour [1]: 91.4%
